Results on 68 molecules are retold here after patent US20230381328A1, “COMPOUND FOR THE PREVENTION OR TREATMENT OF MYASTHENIA GRAVIS” (ABLEVIA BIOTECH GMBH, priority 2020, published 2023).

Assay [1] has as its system myasthenogenic antibody mAB 198. Nature of the assay: Peptide microarray mimotope screen, binding of mAB 198 to linear and cyclic peptides (fluorescence readout). Also on record: species or system rat. The following applies: cyclic mimotopes; binding of mAB 198, relative fluorescent signal after normalization against background. The source says: A custom peptide array of 30000 peptides was synthesized, with peptides of 7-19 amino acids in size; the peptides were based on substitution analyses of 176 AChR-MIR peptides with exchanges of each amino acid positions by each of the 20 common amino acids. Peptides were synthesized directly on a microarray, and screened with monoclonal antibody mAB 198 in order to obtain mimotopes with a binding strength which was improved over the human AChR alpha chain MIR-containing sequence […] (Tzartos et al, 1991; Luo et al, 2009) and over a previously published mimotope sequence ([…]), that was derived from Torpedo AchR with the help of antibody mAB 132A (Trinh et al, 2014). In particular, the wild type AChR-MIR sequence is known to structurally mimic to a certain extent the epitope recognized by myasthenogenic, unwanted and disease-causing antibodies from patients. The mimotope peptide library was designed by permutation of each single amino acid position of these two sequences with all natural amino acids in order to provide a maximally diversified collection of peptide variants. All peptides were synthesized in doublets as linear and as cyclic peptides. The aim was to obtain peptides (mimotopes) that mimic the natural epitope of myasthenogenic antibodies.
For the mimotope screen, the antibody mAB 198 (Absolute Antibody Ltd, UK) was used. This is a prototype antibody that was generated in rats using human AChR (Tzartos et al, 1983; Asher et al, 1993). […] Therefore, mAB198 was used as a surrogate probe to screen for new mimotopes that are capable of mimicking the corresponding AChR-MIR epitope or portions of the epitope.
As a readout, binding of mAB 198 to the 30000 linear and cyclic peptides was measured by fluorescence readout, and peptides were ranked according to their relative fluorescent signal after normalization against the background.
The top-ranked 100 linear and cyclic mimotopes are listed in Table 1 and Table 2 above, respectively.

Assay [2] concerns the target monoclonal antibody mAB 198. The assay can be described thus: peptide microarray, fluorescence, linear peptide.

Take 181 (VRLRGNPAD) [compound 181]: the “relative signal [%]” value in assay [1] is listed as 9.9%.
On to 182 (RSRWNPADY) [compound 182], for which the “relative signal [%]” value in assay [1] worked out at 9.8%.
With 183 (RLRPNPADY) [compound 183], in assay [1], the “relative signal [%]” value was determined as 9.8%.
The same measure, in the same setting: the figure for 184 (RLLWNPADY) [compound 184] is 9.7%; for 185 (RLRWNPADYGS) [compound 185] it is 9.7%.
On to 186 (GSLRWNPADYQ) [compound 186], for which the “relative signal [%]” value in assay [1] is on record as 9.7%.
In the case of 187 (VRLRLNPADYG) [compound 187], the “relative signal [%]” value in assay [1] was found to be 9.7%.
For 188 (SLYWNPADY) [compound 188], the “relative signal [%]” value in assay [1] worked out at 9.4%.
For 189 (LRGNPAD) [compound 189], the “relative signal [%]” value in assay [1] turned out to be 9.1%.
Turning to 190 (RWNPADF) [compound 190], the “relative signal [%]” value in assay [1] came to 9.1%.
Same read-out and setting: in the case of 191 (RLRGNPADYGG) [compound 191] it was 9.0%; in that of 192 (WNPDDYR) [compound 192], 9.0%.
Still for that read-out and setting: the figure for 193 (LRWNPADYPGI) [compound 193] is 8.9%; for 194 (DVRLRQNPADY) [compound 194] it is 8.8%.
Turning to 195 (SLRWNPADYHG) [compound 195], the “relative signal [%]” value in assay [1] is 8.7%.
On to 196 (GSLRWNPADYT) [compound 196], for which the “relative signal [%]” value in assay [1] is recorded as 8.7%.
For the molecule 197 (NPADYGN) [compound 197], in assay [1], the “relative signal [%]” value is given as 8.7%.
Consider 198 (LRFNPAD) [compound 198], for which the “relative signal [%]” value in assay [1] is listed as 8.6%.
As to 199 (RLRTNPADY) [compound 199], the “relative signal [%]” value in assay [1] is recorded as 8.6%.
On to 200 (GGSLRLNPADY) [compound 200], for which the “relative signal [%]” value in assay [1] is 8.5%.
NPADYPG [NPADYPG, linear mimotope] registered a relative signal [%] in assay [2] of 19.8%.
Molecule RLHWNPADY yielded a relative signal [%] in assay [2] of 20.2%.
Regarding LLGGGSLRFNP, in assay [2], the relative signal [%] was 16.7%.
On the same count and under the same terms, in the case of GGGSLRFNP it was 13%.
As for LRINPADYG, the relative signal [%] in assay [2] is 12.6%.
Regarding LRGNPAD [LRGNPAD, linear mimotope], the relative signal [%] in assay [2] was found to be 48%.
In turn, NPADYGY [NPADYGY, linear mimotope] displayed a relative signal [%] in assay [2] of 21.2%.
Same read-out and setting: the figure for WNPDDYR [WNPDDYR, linear mimotope] is 11.4%; for NPADYRG [NPADYRG, linear mimotope] it is 71.4%; for NPADYGD [NPADYGD, linear mimotope] it is 14.1%.
For VRLRYNP [VRLRYNP, linear mimotope], the relative signal [%] in assay [2] amounted to 26.3%.
Same read-out and setting: the figure for WNPADYGHI is 13.7%; for RINPADY [RINPADY, linear mimotope] it is 12.2%.
For the molecule YNLKFNP [YNLKFNP, linear mimotope], the relative signal [%] in assay [2] turned out to be 13.7%.
Molecule VRLRFNP [VRLRFNP, linear mimotope] registered a relative signal [%] in assay [2] of 27.1%.
On the same count and under the same terms, the figure for RGNPADYGG is 13%; for SLRINPADY it is 11%; for VRLRWNPADYP it is 56.7%.
Same read-out and setting: in the case of NPDDYHG [NPDDYHG, linear mimotope] it was 21.3%.
For RLRWNPADYHG, the relative signal [%] in assay [2] came out at 12.4%.
Still for that read-out and setting: the figure for NPADYGV [NPADYGV, linear mimotope] is 6%.
On the same count and under the same terms, in the case of CNLKFNP [CNLKFNP, linear mimotope] it was 11%; in that of QWIDVRLRFNP, 20.1%; in that of WNPADYP [WNPADYP, linear mimotope], 20.5%.
For the molecule RLNPADY [RLNPADY, linear mimotope], the relative signal [%] in assay [2] came out at 17.7%.
Take LRLNPAD [LRLNPAD, linear mimotope]: the relative signal [%] in assay [2] is 25.2%.
In the case of RYNPADY [RYNPADY, linear mimotope], the relative signal [%] in assay [2] was determined as 16.5%.
Still for that read-out and setting: in the case of RLRVNPADY it was 14.9%; in that of LRYNPAD [LRYNPAD, linear mimotope], 15.9%.
For the molecule LRRNPAD [LRRNPAD, linear mimotope], the relative signal [%] in assay [2] came to 100%.
In turn, SLHWNPADY displayed a relative signal [%] in assay [2] of 13.6%.
Regarding LRRNPADYG, the relative signal [%] in assay [2] is 28.3%.
With NPADYGR [NPADYGR, linear mimotope], the relative signal [%] in assay [2] is 12.2%.
In assay [2], NPADYHG [NPADYHG, linear mimotope] came in with a relative signal [%] of 59.3%.
In assay [2], LRWNPADYH returned a relative signal [%] of 15.3%.
Turning to RLRFNPADY, the relative signal [%] in assay [2] came out at 11.4%.
Molecule GSLRFNP [GSLRFNP, linear mimotope] showed a relative signal [%] in assay [2] of 21.6%.
Molecule IDVRLRFNP came in with a relative signal [%] in assay [2] of 15%.
Still for that read-out and setting: in the case of LRLNPADYG it was 17.3%; in that of IDVRLRYNP, 12.2%; in that of QWIDVRLRYNP, 13.4%.
RFNPADY [RFNPADY, linear mimotope]: the relative signal [%] in assay [2] came to 21.8%.
Turning to VRLRRNPAD, the relative signal [%] in assay [2] worked out at 25%.
RLYWNPADY: in assay [2], the relative signal [%] stood at 11%.
The same measure, in the same setting: the figure for RWNPADF [RWNPADF, linear mimotope] is 12.6%; for QWVDYNLKFNP it is 10.9%.
For the molecule NPADYGH [NPADYGH, linear mimotope], the relative signal [%] in assay [2] is 18.1%.
Still for that read-out and setting: in the case of LHWNPAD [LHWNPAD, linear mimotope] it was 15.7%.
